Measured values as given in patent US20250228964A1 (CODIAK BIOSCIENCES, published 2025).

Target: the molecule itself
Assay: SEC-MALS (eluted at 198 kDa against the predicted 98 kDa) and analytical SEC with 0, 1M or 2M GuHCl
Protocol: To confirm proper expression of the PTGFRN ECD, the purified protein was analyzed by size exclusion chromatography/multiangle light scattering (SEC-MALS), using BSA and an anti-VLA4 antibody as standards for comparison. Recombinant PTGFRN ECD was eluted at ˜2x its predicted molecular weight (198 kDa as opposed to the predicted molecular weight, 98 kDa; FIG. 20A). To determine whether PTGFRN ECD forms a homodimer in solution, recombinant PTGFRN ECD was run over an analytical SEC column (Tosoh, 7.8×30cm, G3000SW xl) in PBS in the absence of guanidium chloride (GuHCl) or in the presence of 1M or 2M guanidinium chloride (GuHCl).

B1: recombinant PTGFRN extracellular domain (ECD), purified, Fc tag removed with thrombin (receptor)
chain: VPTATLVRVVGTELVIPCNVSDYDGPSEQNFDWSFSSLGSSFVELASTWEVGFPAQLYQERLQRGEILLRRTANDAVELHIKNVQPSDQGHYKCSTPSTDATVQGNYEDTVQVKVLADSLHVGPSARPPPSLSLREGEPFELRCTAASASPLHTHLALLWEVHRGPARRSVLALTHEGRFHPGLGYEQRYHSGDVRLDTVGSDAYRLSVSRALSADQGSYRCIVSEWIAEQGNWQEIQEKAVEVATVVIQPSVLRAAVPKNVSVAEGKELDLTCNITTDRADDVRPEVTWSFSRMPDSTLPGSRVLARLDRDSLVHSSPHVALSHVDARSYHLLVRDVSKENSGYYYCHVSLWAPGHNRSWHKVAEAVSSPAGVGVTWLEPDYQVYLNASKVPGFADDPTELACRVVDTKSGEANVRFTVSWYYRMNRRSDNVVTSELLAVMDGDWTLKYGERSKQRAQDGDFIFSKEHTDTFNFRIQRTTEEDRGNYYCVVSAWTKQRNNSWVKSKDVFSKPVNIFWALEDSVLVVKARQPKPFFAAGNTFEMTCKVSSKNIKSPRYSVLIMAEKPVGDLSSPNETKYIISLDQDSVVKLENWTDASRVDGVVLEKVQEDEFRYRMYQTQVSDAGLYRCMVTAWSPVRGSLWREAATSLSNPIEIDFQTSGPIFNASVHSDTPSVIRGDLIKLFCIITVEGAALDPDDMAFDVSWFAVHSFGLDKAPVLLSSLDRKGIVTTSRRDWKSDLSLERVSVLEFLLQVHGSEDQDFGNYYCSVTPWVKSPTGSWQKEAEIHSKPVFITVKMDVLNAFKYP
notes: Expressed in Expi293 as signal peptide-ECD-PAR1 cleavage site-Fc; the Fc was removed with thrombin, so a remnant of the PAR1 site may remain; also called PTGFRN ECD; purified PTGFRN ECD
**Q.** Does B1 bind?
**A.** binds
